{
  "source": "the DeepSol protein solubility set",
  "data": [
    {"experiment": "soluble on expression in E. coli; label from the status in PepcDB or PDB records", "values": [
      {"sequence": "MGSDKIHHHHHHSAGPIHPASLDIDNGNGTNVFIAYEWVDYDYKTYTENGLALDEAWGHLYMAIVAVAGVHVTGYVHNDIDRGNFVINSDGILKLTDFGMSSSKDASCSGKALFFPPETFQPGFFQRKRDASALARVQARDLFQVGNTMLEAILGKEGEIYQAERYGLKLAMVKKKPDFKQDLKVVIQDEKKFRKSFGKIGTKKIEDKLCVDPSRQAEVVKNLARWGLQNSLSL", "soluble on expression in E. coli": "not soluble"},
      {"sequence": "MSLGKSNVLVTMPVAPTMEVKSFPILDQCVGQVGLNFELSFTGAPPYYYNTKIYKLENGERKLYDAKRYTSEGTRNRFSYSPPKEGNYEIVFDTVSNKLFTEPIKLEPVKEYTFKTSMRVKPSASLKLHHDLKLCLGDHSSVPVALKGQGPFTLTYDIIETFSSKRKTFEIKEIKTNEYVIKTPVFTTGGDYILSLVSIKDSTGCVVGLSQPDAKIQVRRDIPSAAFNFFEPIKEAKIKHGSVTEIPLKLSGEGPFTVKFKHMDYDGNIVKEFENKFQNSYKPALKVSKEGLYQLVDIRDSSCQGNVIYRNSLYKVSFLEKPKFAIQDNHHITKVTENLFSKEEVCQGMEGTVDLALFGSPPFILEYDLMAPNGHISTKKIQVATKYASLKLPNQIPGEYITTIKAIFDGNYGESDIHFREHQSELIIKQTVHPIPDVAFADGGKTLRACAANVDQISFLEPINLKFLQGESPFSITFSVYHESTSRTDQYTIDNIDSENFSFEKLYEGMKLGNHAITIDSVVDANGCVNSLISGPRNQILVSITDAPKIHILDPSTEYCVGDYVAYQLNGVAPFMIKYEFNGIPLKSKERSSQFVRLASEPGIISITSLQDSSSQCIVDFTNPKLKSEFDDEGHHHHHH", "soluble on expression in E. coli": "soluble"},
      {"sequence": "MGSDKIHHHHHHMKVSEFDYELPPELIAQEPVEPRDASRLMVLHRKTQRIEHRIFREIIEYLEPGDLLVLNVSKVIPARLYARKKTGASIEILLIERLEEGIWKCLVRPGQKVKKGTELVIDEDLSAVCLGRGEDGTRILKFQPQDDRLIFEKGRTPLPPYIKNEVPLERYQTVYAKEEGSVAAPTAGLHFTPELIEKLKKKGVQFAEVVLHVGIGTFRPVKVEEVEKHKMHEEFYQVPKETVRKLRETRERGNRIVAVGTTTVRTLETIARLPEQEEYVGKTDLFIYPPFEFKLVDALVTNFHLPRSTLLMLVAAFAGKDFVMEAYREAVKRRYRFFSFGDAMLIL", "soluble on expression in E. coli": "soluble"},
      {"sequence": "MAREFKRSDRVAQEIQKEIAVILQREVKDPRIGMVTVSDVEVSSDLSYAKIFVTFLFDHDEMAIEQGMKGLEKASPYIRSLLGKAMRLRIVPEIRFIYDQSLVEGMRMSNLVTNVVREDEKKHVEESNLEHHHHHH", "soluble on expression in E. coli": "soluble"},
      {"sequence": "SLIHIAIVEDENKDRELLKEYLDRFQAEKGEPLFVHVYPDGEEFLESFSSGKFDILLLDIHMQYMNGMATAQEIRKSDENVLIIFITNLVQYAVQGYSVRAFDFIVKPVEYSVFAQKLYRATQRLNRTEG", "soluble on expression in E. coli": "soluble"},
      {"sequence": "MVDLGSDRLPVAVIGAGPVGLAAAAHLAERSVPFVVLEAGDAAATAVQAWSHIQLFSPWEFNTDPAARRLLAAAGWEEPDASALPTGGDLVKQYLQPLAELPALASHIRYGAEVTAISRLGIDRLRTADRDAAPFVLRLADGEEVLARAVIDASGTWRQPNHVGANGLPAHGEKDAAAWINHGLPDVFGADRDQHAGRHTVVVGAGHSAANTLLALAELADTAPGTTITWAIRGADPAASFGGGSDDELPARGAIGSGLKMLVETGRVTLAANFRTHAVRRLGDDPSRDQVELVSRALDGTERSVTADRVVAATGFRPDYRIVDELRLELDPIMSAPRALAPLIDPNQHSCGTVTPHGYRELAHPEPGYYAVGMKSYGRAPTFLMLTGYEQVRSIAAALAGDLEAAQSVELQLPETGVCSVTAGGEALALRLGLTKDQHEQLLHVTAKHLGTSATASDAVLSAATELGIDQTAALQLAAYAADMFDAPGAPGCLEHHHHHH", "soluble on expression in E. coli": "not soluble"},
      {"sequence": "MATLEITDIALVQPSHQPLSNDQTLSLSHLDNDNNLHVSFRYLRVYSSSSSTVAGESPSAVVSASLATALVHYYPLAGSLRRSASDNRFELLCSAGQSVPLVNATVNCTLESVGYLDGPDPGFVERLVPDPTREEGMVNPCILQVTMFQCGGWVLGASIHHAICDGLGASLFFNAMAELARGATKISIEPVWDRERLLGPREKPWVGAPVRDFLSLDKDFDPYGQAIGDVKRDCFFVTDDSLDQLKAQLLEKSGLNFTTFEALGAYIWRAKVRAAKTEEKENVKFVYSINIRRLMNPPLPKGYWGNGCVPMYAQIKAGELIEQPIWKTAELIKQSKSNTSDEYVRSFIDFQELHHKDGINAGTGVTGFTDWRYLGHSTIDFGWGGPVTVLPLSNKLLGSMEPCFFLPYSTDAAAGSKKDSGFKVLVNLRESAMPEFKEAMDKFHKGEFALS", "soluble on expression in E. coli": "soluble"},
      {"sequence": "MVGHSESSTDAVIEPTSEELLAEQVRVFNKMKGSTNFNRVAEDVYPVEVTKSKLVCEMVVQHQHLNSKGTLHGGQTATLTDVITARAVGVTVKDKGMASVELAVSYLLPVKVGDVLEITAHVLKVGRTMAFTDCEFRRKSDGKMSAKGKHTLAFLPNQPGISVENGTQFLEHHHHHHS", "soluble on expression in E. coli": "soluble"},
      {"sequence": "MKCKKCGRKAVANLKAYGIALCEKCYPEFYRNLVKRSIKRFRILRPEERVLIAISGGKDSSALAAVLKELDYDAELLYIDLGIGNYSEESERVVRELSSSLDLSLNVVRLRDYGFTVDDVARKMRRKTCSACGTAKRYIMNRFARENSFDVVATGHTAEDIASFYIKNVAGGTRVWAEKLMPRNEPFDEKIVTRAKPLFEVSEKENMLYVLVNDIPHTLMECPHAPNPEWKEIVYDIERRKPGFVKNFVRGLVRPAEEFEETKYCKICGEVSSGDVCAFCRLRERLS", "soluble on expression in E. coli": "not soluble"},
      {"sequence": "MSLEIKFLSLCILAGVLFVSQVNASANNGKDDVKYAALTQKDLDALPVEKRASVLDELGFIHEYGLSVPMNRERALQYYKQACELGGNYGCYNVKYAYQYGDGVAKDSAQANKYAKKMNLDNLLIEQEYIDKFSQEIYMAKALADTDKSQRAAFISILIHALNNRPESDALFFSRIGFNQEKTFRLATLWSQDGDPQMDYQMGRLTLNDFSGRYADEPYQARPASLKWFRAAAEKGVVEAQSLLGGIYSGGEGDEWGIKPDIQEAQKWYGQAAKQGDSDAQIALGKIYYSGATGRTDYAKALALFTQVENDGTNSRSTMPLSWMYYNGLGTAPDCDKAWSYYKKASRYVGKKVEEGHHHHHH", "soluble on expression in E. coli": "not soluble"},
      {"sequence": "MSLYIHQTACISAQPAFADPASDHVAAAVDNKLYAIDSNYDSIPPNVLRRLGKAVKMGIATGHSLISKHPVDGIVLGTANGGLEDCIKFLNQIIEFEEGRLTPTNFVQSTTNAIAGQLGIMSSNKGYNITHVHRGLAFENALIDIEMLLNEYPSNTYLLGGVDEISAYNYTIEKLAGTYKSETISSAQLFSSQTTGTIAGEGAAMFLVNTNRLNAAAAIKGIKTYNNPSPEAIKKHLEDFLAKHLPQNEKIDVLFSGKNGDVCLNSFYEVCAQQLGKETTVCYYKQLTGDFPTVTALALWFATRFIEDSNNLPVLNIKKTGAVKNILLYNTYKGYQHSFILVSEGHHHHHH", "soluble on expression in E. coli": "not soluble"},
      {"sequence": "MAAASAVSVLLVAAERNRWHRLPSLLLPPRTWVWRQRTMKYTTATGRNITKVLIANRGEIACRVMRTAKKLGVQTVAVYSEADRNSMHVDMADEAYSIGPAPSQQSYLSMEKIIQVAKTSAAQAIHPGCGFLSENMEFAELCKQEGIIFIGPPPSAIRDMGIKSTSKSIMAAAGVPVVEGYHGEDQSDQCLKEHARRIGYPVMIKAVRGGGGKGMRIVRSEQEFQEQLESAWREAKKSFNDDAMLIEKFVDTPRHVEVQVFGDHHGNAVYLFERDCSVQRRHQKIIEEAPAPGIKSEVRKKLGEAAVRAAKAVNYVGAGTVEFIMDSKHNFCFMEMNTRLQVEHPVTEMITGTDLVEWQLRIAAGEKIPLSQEEITLQGHAFEARIYAEDPSNNFMPVAGPLVHLSTPRADPSTRIETGVRQGDEVSVHYDPMIAKLVVWAADRQAALTKLRYSLRQYNIVGLPTNIDFLLNLSGHPEFEAGNVHTDFIPQHHKQLLLSRKAAAKESLCQAALGLILKEKAMTDTFTLQAHDQFSPFSSSSGRRLNISYTRNMTLKDGKNNVAIAVTYNHDGSYSMQIEDKTFQVLGNLYSEGDCTYLKCSVNGVASKAKLIILENTIYLFSKEGSIEIDIPVPKYLSSVSSQETQGGPLAPMTGTIEKVFVKAGDKVKAGDSLMVMIAMKMEHTIKSPKDGTVKKVFYREGAQANRHTPLVEFEEEESDKRESE", "soluble on expression in E. coli": "soluble"},
      {"sequence": "MSLYGKRLVVFAPLYVSNYCVNNCTYCGYKHCNDELKRKKLNKEQLIEEVKVLESLGHKRIALEAGEDPVNAPLDYILDCIKSIYSIKFDNGSIRRINVNIAATSVEDYKRLKDAEIGTYILFQETYHKPTYERLHVSGPKHNYNYHTTAMHRAREAGIDDIGMGVLYGLYDYKYETLAMLMHAMDLEETTGVGPHTLSVPRIRPAENVSLENYPYLVDDEDFKKIVAILRLAVPYAGLILSTREEPGLRDEIIALGVSQVSTGSCTGVGGYSESYIDPEEKPQFEVGDHRSPVEMIESLMEAGYIPSYCTACYREGRTGERFMDIVKSGELYKICEANALITLKEFIDDYGTDRTREIGDKLIKKSIDEIDNESFRKSVEEKINKISNGTRDLRFEGHHHHHH", "soluble on expression in E. coli": "not soluble"},
      {"sequence": "MEKSGGRIVMDEIRSFEKAHLFDLGHPLLNRIADSFVKAAGVSFDSNNVGPPSEITGNKKHRFPNLRGESSKSLDALVKNTGKESLQWGLAAGLYSGITYGMTEVRGGAHDWRNSAVAGALTGAAMAMTTSERTSHEQVVQSALTGAAISTAANLLSSVF", "soluble on expression in E. coli": "soluble"},
      {"sequence": "MGHHHHHHSHMRRFQRSTVIDAPRELVWAFHEQADVLEQLTPPWLPVEVVRREGGLGPGAVSEFRLWLGPVPIRWVATHNDDYEPGRCFCDRQSQGPFADWLHRHIFSREGDRTRLIDEVEYALPGGWLPELSVCPVVDAQLERLFAYRQQVTKQWCESRRDAFLQSNRTTKGLQSL", "soluble on expression in E. coli": "not soluble"},
      {"sequence": "MGSDKIHHHHHHMTANEKKDLAHARVSASDGADAWVRFTVAGKRFDMPVVINASTRSLGASIIVNRMLSRRAPNDARPLMLVTQHITSRMADDLIAKGIPFLDTAGNAYLHEPEATIMIVGRDKPALNLKNPTSRSTTPKGLRVTFALLTQPGLVHAPYRTIADRSAVALNTVNLAMDDLIYRGLVVHKGARRVIADRRRLIEEWASLFPTRLRPKLSPCRFTSWTKESNWWSRPEILDIDARLGGEAGADILTHEIKPASLTIYSHRGITPRLMLNGMLRPDDRGNVEVLETFWPAKAEEGWNLPHREVVHPLLIYSDLITSGDDRNRAVAQTIYDRYLAKERA", "soluble on expression in E. coli": "not soluble"},
      {"sequence": "MKKYSFPVTYENVRFPPNGQLKLPVMPAEPFYDAEKGEKKYKSTKRMIEARGVEEVHTELIHEQYGLAAVSGGFIDSDDFKFIQDRINKNLIDNQFSVWRVDAPWLPRTKKAQGTRLGGGKGSIQKYVTPVRANRIILEVGGHITEIEAKAFLLYLCERFSFPVEFVSETMLAERRKKAEEERAMNKNGFNWGKVIKYNMQNCNSWLSSYDVAWKGKYR", "soluble on expression in E. coli": "not soluble"},
      {"sequence": "MTIGQKNTNIDPRFPHHHPRPQSFWEARAKALESLLIEKGHLSSDAIERVIKHYEHELGPMNGAKVVAKAWTDPAFKQRLLEDSETVLRELGYYGLQGEHIRVVENTDTVHNVVVCTLCSCYPWPLLGLPPSWYKEPAYRARVVKEPRQVLKEFGLDLPDSVEIRVWDSSSEIRFMVLPQRPEGTEGMTEEELAKLVTRDSMIGVAKIEPPKVTVG", "soluble on expression in E. coli": "soluble"},
      {"sequence": "MEKQNIAVILARQNSKGLPLKNLRKMNGISLLGHTINAAISSKCFDRIIVSTDGGLIAEEAKNFGVEVVLRPAELASDTASSISGVIHALETIGSNSGTVTLLQPTSPLRTGAHIREAFSLFDEKIKGSVVSACPMEHHPLKTLLQINNGEYAPMRHLSDLEQPRQQLPQAFRPNGAIYINDTASLIANNCFFIAPTKLYIMSHQDSIDIDTELDLQQAENILNHKES", "soluble on expression in E. coli": "soluble"}
    ]}
  ]
}
